Measurements published in publication PMC7865074, “Role of PDZ-binding motif from West Nile virus NS5 protein on viral replication” (Scientific Reports, 2021).
Ends that are not written are not given here.

Target: T1, biotinylated WNV NS5 PBM peptide (West Nile virus, also: biotinyl group, end not given here)
T1 construct: bait of the holdup assay; also called 13-mer peptide; source: synthetic peptide (solid phase, Fmoc; Proteogenix)
T1 peptide: RYEDTTLVEDTVL
Experiment: holdup assay (automated high-throughput chromatography); biotinylated NS5 PBM peptide as bait against 259 human PDZ domains expressed in E. coli; read-out binding intensity (BI), mean of replicates; BI threshold 0.2 for a significant interaction

B1: Synaptojanin-2-binding protein, PDZ domain (holdup construct) (domain or fragment, human, UniProt P57105 13-100, looked up)
chain: EINLTRGPSGLGFNIVGGTDQQYVSNDSGIYVSRIKENGAAALDGRLQEGDKILSVNGQDLKNLLHQDAVDLFRNAGYAVSLRVQHRL
notes: also called SYNJ2BP; source: E. coli, PDZome V.2 library, high-throughput expression
BI (holdup binding intensity): 0.21

B2: Na(+)/H(+) exchange regulatory cofactor NHE-RF1, PDZ domain 1 (holdup construct) (domain or fragment, human, UniProt O14745 14-94, looked up)
chain: LCCLEKGPNGYGFHLHGEKGKLGQYIRLVEPGSPAEKAGLLAGDRLVEVNGENVEKETHQQVVSRIRAALNAVRLLVVDPE
notes: source: E. coli, PDZome V.2 library, high-throughput expression
BI (holdup binding intensity): 0.68

B3: Membrane-associated guanylate kinase, WW and PDZ domain-containing protein 2, PDZ domain 2 (holdup construct) (domain or fragment, human, UniProt Q86UL8 426-510, looked up)
chain: STTLKKSNMGFGFTIIGGDEPDEFLQVKSVIPDGPAAQDGKMETGDVIVYINEVCVLGHTHADVVKLFQSVPIGQSVNLVLCRGY
notes: also called MAGI2_2; source: E. coli, PDZome V.2 library, high-throughput expression
BI (holdup binding intensity): 0.38

B4: PDZ domain-containing protein GIPC3, PDZ domain (holdup construct) (domain or fragment, human, UniProt Q8TF64 112-192, looked up)
chain: EVEVTKTEDALGLTITDNGAGYAFIKRIKEGSIINRIEAVCVGDSIEAINDHSIVGCRHYEVAKMLRELPKSQPFTLRLVQ
notes: as for B2
BI (holdup binding intensity): < 0.15

B5: FERM and PDZ domain-containing protein 4, PDZ domain (holdup construct) (domain or fragment, human, UniProt Q14CM0 78-155, looked up)
chain: KVEMRRDPVLGFGFVAGSEKPVVVRSVTPGGPSEGKLIPGDQIVMINDEPVSAAPRERVIDLVRSCKESILLTVIQPY
notes: also called FRMPD4; source: E. coli, PDZome V.2 library, high-throughput expression
BI (holdup binding intensity): 0.32

B6: SH3 and multiple ankyrin repeat domains protein 2, PDZ domain (holdup construct) (domain or fragment, human, UniProt Q9UPX8 626-720, looked up)
chain: TVVLQKKDNEGFGFVLRGAKADTPIEEFTPTPAFPALQYLESVDEGGVAWQAGLRTGDFLIEVNNENVVKVGHRQVVNMIRQGGNHLVLKVVTVT
notes: also called SHANK2; source: E. coli, PDZome V.2 library, high-throughput expression
BI (holdup binding intensity): 0.39

B7: 26S proteasome non-ATPase regulatory subunit 9, PDZ domain (holdup construct) (domain or fragment, human, UniProt O00233 108-195, looked up)
chain: QARDMAEAHKEAMSRKLGQSESQGPPRAFAKVNSISPGSPASIAGLQVDDEIVEFGSVNTQNFQSLHNIGSVVQHSEGKPLNVTVIRR
notes: also called PSMD9; source: E. coli, PDZome V.2 library, high-throughput expression
BI (holdup binding intensity): < 0.15

B8: Beta-1-syntrophin, PDZ domain (holdup construct) (domain or fragment, human, UniProt Q13884 112-195, looked up)
chain: GVKVLKQELGGLGISIKGGKENKMPILISKIFKGLAADQTQALYVGDAILSVNGADLRDATHDEAVQALKRAGKEVLLEVKYMR
notes: also called SNTB1; source: E. coli, PDZome V.2 library, high-throughput expression
BI (holdup binding intensity): 0.22

B9: Membrane-associated guanylate kinase, WW and PDZ domain-containing protein 1, PDZ domain 2 (holdup construct) (domain or fragment, human, UniProt Q96QZ7 472-554, looked up)
chain: HTKLRKSSRGFGFTVVGGDEPDEFLQIKSLVLDGPAALDGKMETGDVIVSVNDTCVLGHTHAQVVKIFQSIPIGASVDLELCR
notes: also called MAGI1_2; source: E. coli, PDZome V.2 library, high-throughput expression
BI (holdup binding intensity): 0.55

B10: Regulating synaptic membrane exocytosis protein 2, PDZ domain (holdup construct) (domain or fragment, human, UniProt Q9UQ26 668-754, looked up)
chain: DGSVPRDSGAMLGLKVVGGKMTESGRLCAFITKVKKGSLADTVGHLRPGDEVLEWNGRLLQGATFEEVYNIILESKPEPQVELVVSR
notes: also called RIMS2; source: E. coli, PDZome V.2 library, high-throughput expression
BI (holdup binding intensity): < 0.15

B11: Rho guanine nucleotide exchange factor 12, PDZ domain (holdup construct) (domain or fragment, human, UniProt Q9NZN5 72-151, looked up)
chain: CVIIQKDDNGFGLTVSGDNPVFVQSVKEDGAAMRAGVQTGDRIIKVNGTLVTHSNHLEVVKLIKSGSYVALTVQGRPPGS
notes: also called ARHGEF12; source: E. coli, PDZome V.2 library, high-throughput expression
BI (holdup binding intensity): 0.25

B12: Partitioning defective 3 homolog B, PDZ domain 1 (holdup construct) (domain or fragment, human, UniProt Q8TEW8 201-289, looked up)
chain: TRTVEISGEGGPLGIHVVPFFSSLSGRILGLFIRGIEDNSRSKREGLFHENECIVKINNVDLVDKTFAQAQDVFRQAMKSPSVLLHVLP
notes: also called PARD3B_1; source: E. coli, PDZome V.2 library, high-throughput expression
BI (holdup binding intensity): 0.48

B13: MAGUK p55 subfamily member 5, PDZ domain (holdup construct) (domain or fragment, human, UniProt Q8N3R9 256-336, looked up)
chain: IVRIEKARDIPLGATVRNEMDSVIISRIVKGGAAEKSGLLHEGDEVLEINGIEIRGKDVNEVFDLLSDMHGTLTFVLIPSQ
notes: also called MPP5; source: E. coli, PDZome V.2 library, high-throughput expression
BI (holdup binding intensity): < 0.15

B14: PDZ domain-containing protein 4, PDZ domain (holdup construct) (domain or fragment, human, UniProt Q76G19 130-214, looked up)
chain: EVELYKSSHRDKLGLMVCYRTDDEEDLGIYVGEVNPNSIAAKDGRIREGDRIIQINGVDVQNREEAVAILSQEENTNISLLVARP
notes: also called PDZD4; source: E. coli, PDZome V.2 library, high-throughput expression
BI (holdup binding intensity): < 0.15

B15: Disks large homolog 1, PDZ domain 2 (holdup construct) (domain or fragment, human, UniProt Q12959 319-405, looked up)
chain: EIKLIKGPKGLGFSIAGGVGNQHIPGDNSIYVTKIIEGGAAHKDGKLQIGDKLLAVNNVCLEEVTHEEAVTALKNTSDFVYLKVAKP
notes: also called DLG1_2; source: E. coli, PDZome V.2 library, high-throughput expression
BI (holdup binding intensity): 0.22

B16: Microtubule-associated serine/threonine-protein kinase 1, PDZ domain (holdup construct) (domain or fragment, human, UniProt Q9Y2H9 967-1055, looked up)
chain: PITIQRSGKKYGFTLRAIRVYMGDTDVYSVHHIVWHVEEGGPAQEAGLCAGDLITHVNGEPVHGMVHPEVVELILKSGNKVAVTTTPFE
notes: also called MAST1; source: E. coli, PDZome V.2 library, high-throughput expression
BI (holdup binding intensity): 0.52

B17: Connector enhancer of kinase suppressor of ras 3, PDZ domain (holdup construct) (domain or fragment, human, UniProt Q6P9H4 211-293, looked up)
chain: EVHLPNIKPGEGLGMYIKSTYDGLHVITGTTENSPADRSQKIHAGDEVIQVNQQTVVGWQLKNLVKKLRENPTGVVLLLKKRP
notes: also called CNKSR3; source: E. coli, PDZome V.2 library, high-throughput expression
BI (holdup binding intensity): < 0.15
